{"source": "patent US20130116185A1", "about": "“PHOSPHATIDYLINOSITOL 3-KINASES ACTIVITY REGULATOR INCLUDING THE FIFTH ZINC FINGER DOMAIN OF FOG2” (SNU R&DB FOUNDATION, priority 2010, published 2013)", "molecules": {"B1": {"name": "FOG2-ZF-5-m: Mutated FOG2 with altered the fifth zinc finger domain (two histidine residues substituted with alanine) (protein)", "chain": "MSRRKQSKPRQIKRPLEDAIEDEEEECPSEETDIISKGDFPLEESFSTEFGPENLSCEEVEYFCNKGDDEGIQETAESDGDTQSEKPGQPGVETDDWDGPGELEVFQKDGERKIQSRQQLPVGTTWGPFPGKMDLNNNSLKTKAQVPMVLTAGPKWLLDVTWQGVEDNKNNCIVYSKGGQLWCTTTKAISEGEELIAFVVDFDSRLQAASQMTLTEGMYPARLLDSIQLLPQQAAMASILPTAIVNKDIFPCKSCGIWYRSERNLQAHLMYYCSGRQREAAPVSEENEDSAHQISSLCPFPQCTKSFSNARALEMHLNSHSGVKMEEFLPPGASLKCTVCSYTADSVINFHQHLFSHLTQAAFRCNHCHFGFQTQRELLQHQELHVPSGKLPRESDMEHSPSATEDSLQPATDLLTRSELPQSQKAMQTKDASSDTELDKCEKKTQLFLTNQRPEIQPTTNKQSFSYTKIKSEPSSPRLASSPVQPNIGPSFPVGPFLSQFSFPQDITMVPQASEILAKMSELVHRRLRHGSSSYPPVIYSPLMPKGATCFECNITFNNLDNYLVAKKAYCSSRWQQMAKSPEFPSVSEKMPEALSPNTGQTSINLLNPAAHSADPENPLLQTSCINSSTVLDLIGPNGKGHDKDFSTQTKKLSTSSNNDDKINGKPVDVKNPSVPLVDGESDPNKTTCEACNITFSRHETYMVHKQYYCATRHDPPLKRSASNKVPAMQRTMRTRKRRKMYEMCLPEQEQRPPLVQQRFLDVANLNNPCTSTQEPTEGLGECYHPRCDIFPGIVSKHLETSLTINKCVPVSKCDTTHSSVSCLEMDVPIDLSKKCLSQSERTTTSPKRLLDYHECTVCKISFNKVENYLAHKQNFCPVTAHQRNDLGQLDGKVFPNPESERNSPDVSYERSIIKCEKNGNLKQPSPNGNLFSSHLATLQGLKVFSEAAQLIATKEENRHLFLPQCLYPGAIKKAKGADQLSPYYGIKPSDYISGSLVIHNTDIEQSRNAENESPKGQASSNGCAALKKDSLPLLPKNRGMVIVNGGLKQDERPAANPQQENISQNPQHEDDHKSPSWISENPLAANENVSPGIPSAEEQLSSIAKGVNGSSQAPTSGKYCRLCDIQFNNLSNFITHKKFYCSSHAAEHVK", "modifications": "left off: small tags and cut ends"}}, "key": {"[1]": {"molecular_target": "PI3K (Homo sapiens, UniProt P27986)", "sequence (P27986 whole entry, the tested form may be a part)": "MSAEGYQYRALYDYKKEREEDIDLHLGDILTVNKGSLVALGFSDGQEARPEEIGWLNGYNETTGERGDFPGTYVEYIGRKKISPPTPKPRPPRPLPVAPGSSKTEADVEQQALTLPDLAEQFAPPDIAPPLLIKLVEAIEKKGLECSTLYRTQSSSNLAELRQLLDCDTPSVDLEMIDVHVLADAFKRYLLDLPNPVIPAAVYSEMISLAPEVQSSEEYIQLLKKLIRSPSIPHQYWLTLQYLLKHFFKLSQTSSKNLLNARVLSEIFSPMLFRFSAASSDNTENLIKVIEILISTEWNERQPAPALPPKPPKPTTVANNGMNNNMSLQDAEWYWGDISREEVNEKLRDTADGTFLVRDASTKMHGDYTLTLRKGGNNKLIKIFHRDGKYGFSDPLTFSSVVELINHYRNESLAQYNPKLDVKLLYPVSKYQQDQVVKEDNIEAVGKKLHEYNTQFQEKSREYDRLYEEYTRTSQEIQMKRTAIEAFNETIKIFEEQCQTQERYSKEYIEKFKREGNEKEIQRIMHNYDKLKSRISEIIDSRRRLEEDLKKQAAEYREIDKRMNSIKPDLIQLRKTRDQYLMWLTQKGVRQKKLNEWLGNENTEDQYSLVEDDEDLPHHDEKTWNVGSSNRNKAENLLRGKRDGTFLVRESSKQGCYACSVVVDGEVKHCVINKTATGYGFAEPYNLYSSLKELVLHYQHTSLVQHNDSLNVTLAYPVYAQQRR", "experiment": "PI3K activity in Hep3B cells transfected with FOG2 constructs (p85α immunoprecipitation, 32P-ATP/PIP2 kinase assay)", "assay_type": "cell-based", "set-up": "The cell lysates were immunoprecipitated with p85α (sc-1637, Santa Cruz) and Protein G-Sepharose beads; endogenous in cells; host or cells: Hep3B", "protocol": "To investigate the inhibitory effect to PI3K activity by FOG2 zinc finger domain, PI3K activity was analyzed using FOG2 mutants having modified zinc finger domain. Specially, it is known that IGF signaling pathway plays an important role in cancer and the increased IGF-1 level enhances the risk of various cancers in many researches.\nAccordingly, the PI3K activity was increased by incubating Hep3B cells with IGF-1 and then measured when the cells were incubated with peptides having mutated FOG2 zinc finger domain.\nAfter Hep3B cells incubation, 100 ng/ml IGF-1 (Insulin like growth factor-1) was added to the cells and incubated for 30 min.\nHep3B cells were transfected with pCK-flag (control), FOG2-wt (wild type) and FOG2 mutants having modified zinc finger domain (FOG2-ZF-5-m and FOG2-ZF-6-m). Two days later, the lysates were obtained using a lysis buffer (20 mM Hepes (pH7.4), 100 mM NaCl, 20 mM KAc, 10 mM MgCl2, 10 mM ZnCl2, 1 mM Na3VO4, 1% NPO4). The cell lysates were immunoprecipitated with p85α (sc-1637, Santa Cruz) and Protein G-Sepharose beads using the same method above. After binding to beads, the lysates were washed 2 times with the lysis buffer and one time with the wash buffer (0.1 M Tris-HCl (pH 7.4), 5 mM LiCl, and 0.1 mM Na3VO4).\nFor measurement of PI3K activity, 10 μl of sonicated PIP2 (1 μg/μl, Calbiochem), 10 μl of 100 mM MgCl2 and 1 μl of [-^32P]ATP (500 μCi/ml) were added to the kinase buffer (10 mM Tris-HCl (pH 7.4), 150 mM NaCl, 1 mM Na3VO4, 10 mM ZnCl2) and incubated at 37° C. for 30 min. After incubation, 20 μl of 6 N HCl was added to stop the reaction and PIP2 was extracted by treatment with 200 μl of methanol:chloroform (1:1) solution. The amount of radioactively labeled PIP2 in the extract was measured using a scintillator counter."}, "[2]": {"test_system": "MDA MB 231 cells", "experiment": "Cell proliferation MTT assay", "assay_type": "cell-based", "conditions": "transfected with 100 ng DNA, 3 days post-transfection, FIG. 6A", "protocol": "Because the PI3K activation is critical in cell growth, the cell proliferation was analyzed to investigate the inhibitory effect of the FOG2 zinc finger domain using the MTT assay.\nMDA MB 231 cells were seeded in a 96-well plate, and transfected with 100 ng DNA of pCKflag, FOG2-wt, FOG2-ZF-5-m or FOG2-ZF-6-m using Lipofectamine 2000. On 3 days post-transfection, the MTT assay was performed.\nMDA MB 231 cells (2×10^3 cells) were seeded in a 96-well plate and treated with 4 μM each peptide for 3 days. After the treatment, 50 μl of MTT solution (2 mg/ml) was added to each well, incubated at 37° C. for 1 hr. Then, 150 μl of DMSO was added to each well and the absorbance value of each well was measured at 590 nm using a microplate reader."}, "[3]": {"test_system": "Akt", "experiment": "Akt phosphorylation by Western blot in transfected Hep3B cells after IGF-1 stimulation", "assay_type": "cell-based", "conditions": "FIG. 1D", "protocol": "Hep3B cells were transfected with FOG2 mutants having modified zinc finger domain to measure the effect on the Akt signaling by FOG2-ZF-5m. The Akt activity was measured by analyzed Akt phosphorylation.\nHep3B cells were transfected with pCK-flag (control), FOG2-wt (wild type) and FOG2 mutants having modified zinc finger domain (FOG2-ZF-5-m and FOG2-ZF-6-m) and stimulated with IGF-1. The expression of Akt (Cell signaling Technology, USA), pAkt (Cell signaling Technology, USA) and GAPDH(Santa cruz, USA) were measured by Western blot analysis."}, "[4]": {"molecular_target": "T1, p85α (Homo sapiens, UniProt P27986)", "T1 construct": "subject to the Western blot analysis using p85α (sc-1637, Santa Cruz); endogenous in cells; host or cells: Hep3B", "T1 sequence (P27986 whole entry, the tested form may be a part)": "as above", "experiment": "Interaction of FOG2 zinc finger domain with p85α (α-Flag immunoprecipitation, Western blot)", "assay_type": "binding", "conditions": "Hep3B cells, 2 days after transfection, FIG. 1B", "description": "To reveal the region of FOG2 interacting with p85α as a subunit of PI3K, we numbered eight (8) zinc finger domains of FOG2. Then, mutated FOG2 with altered zinc finger domain (FOG-ZF-5-m and FOG-ZF-6-m) was manufactured by mutating two domains (known to interact with p85α) positioned at 413-789th amino acid residues of FOG2.\nHep3B cells were transfected with pCK-flag (control), FOG2-wt (wild type) and FOG2 mutants having modified the zinc finger domain (FOG2-ZF-5-m and FOG2-ZF-6-m). On 2 days after transfection, the lysates were obtained using the lysis buffer (20 mM Hepes (pH7.4), 100 mM NaCl, 20 mM KAc, 10 mM MgCl2, […], 1 mM Na3VO4, 5 mM NaF, 1% NPO4). The cell lysates were immunoprecipitated with the α-Flag (Sigma, A2220) and subject to the Western blot analysis using p85α (sc-1637, Santa Cruz) and α-Flag antibody (Sigma, F1804)."}, "[5]": {"test_system": "MDA MB 231 cells", "experiment": "Cell migration, modified Boyden chamber method", "assay_type": "cell-based", "conditions": "transfected 24 hr, 18 hr migration, FIG. 3A", "protocol": "MDA MB 231 cells were transfected with pCK-flag (control), FOG2-wt (wild type) and FOG2 mutants having modified zinc finger domain (FOG2-ZF-5-m and FOG2-ZF-6-m). The cell migration was then analyzed using the modified Boyden chamber method (Albini A et al., Cancer Res 1987 47:3239-45). Following the transfection for 24 hr, MDA MB 231 cells (1×10^5) were suspended in a serum-free medium and seeded in triplicate in the upper part of BD chamber ([…] pore size). The lower part was filled with the serum-free medium. Following the incubation at 37° C. for 18 hr, non-migrating cells positioned at the upper surface of filters were cleaned with a cotton swab. The migrating cells passing through the lower surface of filters were fixed with 70% ethanol and treated with the Giemsa staining solution for 50 min. Then, the cells were rinsed with water and observed under a microscope. The cell migration rate was determined by counting the number of cells present in randomly-selected six sections and the migration range was expressed as the average number of cells per a microscopic field.\nMDA MB 231 cells were incubated with 4 μM Mock (control, DMSO), 4 μM ZF-5-wt-24, 4 μM ZF-5-m-24, 4 μM ZF-5-wt-20 or 4 μM ZF-3-wt-21. After treatment, the cell migration was analyzed using the modified Boyden chamber method (Albini A et al., Cancer Res 1987 47:3239-45). After 2 days of treatment, MDA MB 231 cells (1×10^5) were suspended in the serum free medium and seeded in triplicate in the upper part of BD chamber ([…] pore size). The lower part was filled with the serum free medium. Following the incubation at 37° C. for 18 hr, non-migrating cells positioned at the upper surface of filters were cleaned with the cotton swab. The migrating cells passing through the lower side surface of filters were fixed with 70% ethanol and stained using the Giemsa stain method. The cell migration rate was determined by counting the number of cells present in randomly-selected six sections and the migration range was expressed as the average number of cells per a microscopic field."}}, "note": "“Also recorded” adds a separate entry of the source.", "data": [{"molecule": "B1", "values": [{"measurement": "PI3K activation by IGF-1 stimulation", "setting": "[1]; 100 ng/ml IGF-1 30 min, FIG. 1C", "result": "did not inhibit PI3K activation"}, {"measurement": "PI3K activity", "setting": "[1]; without IGF-1 stimulation, FIG. 5A", "result": "did not inhibit PI3K activity"}, {"measurement": "effect on cell proliferation", "setting": "[2]", "result": "did not influence the cell proliferation"}, {"measurement": "Akt phosphorylation", "setting": "[3]", "result": "increased"}, {"measurement": "interaction with p85α", "setting": "[4]", "result": "did not"}, {"measurement": "reduction of cell migration", "setting": "[5]", "result": "does not; also recorded: not observed"}]}]}
